Source: US5736294A, “Reagents and methods for modulating gene expression through RNA mimicry” (ISIS Pharmaceuticals, Inc., priority 1991, dated 1998)

T1: HIV-1 Tat 25-mer peptide (tat25) (Human immunodeficiency virus 1, UniProt P69698 SEQ:1-25)
T1 chain: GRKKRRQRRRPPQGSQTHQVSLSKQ

T2: HIV-1 Tat 37-mer peptide (tat37) (Human immunodeficiency virus 1, UniProt P69698 SEQ:1-37)
T2 chain: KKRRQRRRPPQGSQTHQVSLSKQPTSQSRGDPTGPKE


Columns and labels:
[1] = molecular target: T1, HIV-1 Tat 25-mer peptide (tat25); assay: EMSA; 1:1 KD; repeated in Table 4; details: protein: synthetic, tags: peptide fragment, label: 32P, hairpin, stem-bulge-loop
[2] = molecular target: T2, HIV-1 Tat 37-mer peptide (tat37); assay: EMSA; 1:1 KD; 2-3:1 KD 8200 nM; Table 4 gives 60 nM; 4 C; details: protein: synthetic; tags: chemically synthesized peptide, RP HPLC purified (UCSF Biotechnology Resource Core); label: 32P; hairpin, stem-bulge-loop
[3] = molecular target: T1, HIV-1 Tat 25-mer peptide (tat25); assay: EMSA; 1:1 KD; repeated in Table 4 under tat37 heading; details: protein: synthetic, tags: peptide fragment, label: 32P, hairpin, stem-bulge-loop

Binder	Kd [1] [nM]	Kd [2] [nM]	Kd [3] [nM]
GCCAGAUCUGAGCCUGGGAGCUCUCUGGC (ssRNA, 2'-OMe throughout) [2'-OMe deltaTAR #2306 29-mer (16-45 -A17)]	31.6	86.6	
GCCAGAUCUGAGCCUGGGAGCUCUCUGGC (ssRNA) [deltaTAR29 #3153 (16-45 -A17)]			17.3
